The source of these data is the supplement of paper PMC10567573.

B1: CSNK1G1 (parent)
chain: GSLPWQGLKADTLKERYQKIGDTK
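Further: lentivirally expressed fusions sorted by FACS into six bins by GFP to DsRed ratio, PSI derived from sequencing read proportions per bin multiplied by bin number.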

In the data set the parent is B1. In words: protein stability index of a GFP-peptide fusion (GPS, HEK-293T) (PSI 1-6); higher = more stable. The following applies: c terminus: a fixed tail appended.
For GSLPWQGLKNDTLKERYQKIGDTK [A10N], the protein stability index came out at 4.62.
In the case of GSLPWQGLKTDTLKERYQKIGDTK [A10T] it was 4.48; in that of GSLPWQGLKWDTLKERYQKIGDTK [A10W], 3.56; in that of GSLPWQGLKGDTLKERYQKIGDTK [A10G], 4.46.
In the case of GSLPWQGLKRDTLKERYQKIGDTK [A10R] it was 4.06; in that of GSLPWQGLKHDTLKERYQKIGDTK [A10H], 4.11; in that of GSLPWQGLKYDTLKERYQKIGDTK [A10Y], 3.63.
In the case of GSLPWQGLKCDTLKERYQKIGDTK [A10C] it was 3.48; in that of GSLPWQGLKPDTLKERYQKIGDTK [A10P], 4.39.
Consider GSLPWQGLKEDTLKERYQKIGDTK [A10E], for which the protein stability index stood at 4.06.
For GSLPWQGLKKDTLKERYQKIGDTK [A10K] the value was 4.28; for GSLPWQGLKQDTLKERYQKIGDTK [A10Q], 4.
In the case of GSLPWQGLKLDTLKERYQKIGDTK [A10L] it was 3.32.
On to GSLPWQGLKVDTLKERYQKIGDTK [A10V], for which the protein stability index came out at 4.19.
In the case of GSLPWQGLKDDTLKERYQKIGDTK [A10D] it was 5.01; in that of GSLPWQGLKFDTLKERYQKIGDTK [A10F], 3.5; in that of GSLPWQGLKIDTLKERYQKIGDTK [A10I], 3.6.
Take GSLPWQGLKSDTLKERYQKIGDTK [A10S]: the protein stability index was determined as 4.2.
In the case of GSLPWQGLKMDTLKERYQKIGDTK [A10M] it was 3.7; in that of GSLPWQGLKAITLKERYQKIGDTK [D11I], 3.73.
Turning to GSLPWQGLKAFTLKERYQKIGDTK [D11F], the protein stability index came to 2.89.
In the case of GSLPWQGLKARTLKERYQKIGDTK [D11R] it was 3.57.
On to GSLPWQGLKALTLKERYQKIGDTK [D11L], for which the protein stability index amounted to 3.76.
Consider GSLPWQGLKAHTLKERYQKIGDTK [D11H], for which the protein stability index was found to be 3.69.
On to GSLPWQGLKAKTLKERYQKIGDTK [D11K], for which the protein stability index stood at 3.93.
For GSLPWQGLKAQTLKERYQKIGDTK [D11Q] the value was 3.56; for GSLPWQGLKAETLKERYQKIGDTK [D11E], 4.13.
Consider GSLPWQGLKAWTLKERYQKIGDTK [D11W], for which the protein stability index came to 2.9.
Turning to GSLPWQGLKAPTLKERYQKIGDTK [D11P], the protein stability index stood at 4.11.
For GSLPWQGLKAVTLKERYQKIGDTK [D11V] the value was 2.8; for GSLPWQGLKASTLKERYQKIGDTK [D11S], 4.11.
Consider GSLPWQGLKACTLKERYQKIGDTK [D11C], for which the protein stability index was determined as 3.63.
For GSLPWQGLKATTLKERYQKIGDTK [D11T] the value was 3.61.
In the case of GSLPWQGLKAYTLKERYQKIGDTK [D11Y] it was 3.44.
In the case of GSLPWQGLKAATLKERYQKIGDTK [D11A] it was 3.64.
For the variant GSLPWQGLKAMTLKERYQKIGDTK [D11M], the protein stability index is 3.32.
As to GSLPWQGLKAGTLKERYQKIGDTK [D11G], the protein stability index worked out at 3.8.
Consider GSLPWQGLKANTLKERYQKIGDTK [D11N], for which the protein stability index stood at 3.37.
As to GSLPWQGLKADTQKERYQKIGDTK [L13Q], the protein stability index turned out to be 4.47.
For GSLPWQGLKADTNKERYQKIGDTK [L13N] the value was 4.81; for GSLPWQGLKADTCKERYQKIGDTK [L13C], 3.71.
For GSLPWQGLKADTFKERYQKIGDTK [L13F] the value was 4.2; for GSLPWQGLKADTKKERYQKIGDTK [L13K], 4.15.
In the case of GSLPWQGLKADTPKERYQKIGDTK [L13P] it was 4.06; in that of GSLPWQGLKADTIKERYQKIGDTK [L13I], 4.48.
Turning to GSLPWQGLKADTHKERYQKIGDTK [L13H], the protein stability index was 4.64.
In the case of GSLPWQGLKADTGKERYQKIGDTK [L13G] it was 4.12; in that of GSLPWQGLKADTDKERYQKIGDTK [L13D], 4.49.
For GSLPWQGLKADTAKERYQKIGDTK [L13A] the value was 3.96.
Consider GSLPWQGLKADTEKERYQKIGDTK [L13E], for which the protein stability index worked out at 4.66.
For the variant GSLPWQGLKADTMKERYQKIGDTK [L13M], the protein stability index turned out to be 3.46.
For GSLPFQGLKADTLKERYQKIGDTK [W5F] the value was 4.75; for GSLPYQGLKADTLKERYQKIGDTK [W5Y], 4.43; for GSLPVQGLKADTLKERYQKIGDTK [W5V], 4.58.
In the case of GSLPIQGLKADTLKERYQKIGDTK [W5I] it was 3.99; in that of GSLPHQGLKADTLKERYQKIGDTK [W5H], 4.53; in that of GSLPPQGLKADTLKERYQKIGDTK [W5P], 4.62.
For GSLPGQGLKADTLKERYQKIGDTK [W5G] the value was 4.53; for GSLPTQGLKADTLKERYQKIGDTK [W5T], 5.09.
For GSLPRQGLKADTLKERYQKIGDTK [W5R], the protein stability index was 4.29.
GSLPAQGLKADTLKERYQKIGDTK [W5A]: the protein stability index worked out at 4.98.
In the case of GSLPMQGLKADTLKERYQKIGDTK [W5M] it was 4.61.
Consider GSLPEQGLKADTLKERYQKIGDTK [W5E], for which the protein stability index is 5.42.
Regarding GSLPKQGLKADTLKERYQKIGDTK [W5K], the protein stability index was 4.74.
For GSLPCQGLKADTLKERYQKIGDTK [W5C] the value was 4.7; for GSLPLQGLKADTLKERYQKIGDTK [W5L], 4.62; for GSLPQQGLKADTLKERYQKIGDTK [W5Q], 4.38.
Turning to GSLPDQGLKADTLKERYQKIGDTK [W5D], the protein stability index worked out at 5.18.
In the case of GSLPNQGLKADTLKERYQKIGDTK [W5N] it was 4.97.
In the case of GSLPSQGLKADTLKERYQKIGDTK [W5S] it was 4.99; in that of GSLPWQVLKADTLKERYQKIGDTK [G7V], 3.65.
For GSLPWQELKADTLKERYQKIGDTK [G7E] the value was 4.31; for GSLPWQKLKADTLKERYQKIGDTK [G7K], 3.75.
As to GSLPWQLLKADTLKERYQKIGDTK [G7L], the protein stability index came out at 3.44.
For GSLPWQPLKADTLKERYQKIGDTK [G7P] the value was 4.38.
In the case of GSLPWQRLKADTLKERYQKIGDTK [G7R] it was 3.56; in that of GSLPWQNLKADTLKERYQKIGDTK [G7N], 4.64; in that of GSLPWQYLKADTLKERYQKIGDTK [G7Y], 3.49.
For the variant GSLPWQSLKADTLKERYQKIGDTK [G7S], the protein stability index is 4.01.
In the case of GSLPWQMLKADTLKERYQKIGDTK [G7M] it was 3.85; in that of GSLPWQILKADTLKERYQKIGDTK [G7I], 3.52.
For GSLPWQTLKADTLKERYQKIGDTK [G7T], the protein stability index turned out to be 3.89.
For GSLPWQQLKADTLKERYQKIGDTK [G7Q] the value was 3.9.
GSLPWQCLKADTLKERYQKIGDTK [G7C]: the protein stability index was 3.4.
For GSLPWQALKADTLKERYQKIGDTK [G7A] the value was 4.39; for GSLPWQWLKADTLKERYQKIGDTK [G7W], 3.52; for GSLPWQHLKADTLKERYQKIGDTK [G7H], 3.72.
On to GSLPWQDLKADTLKERYQKIGDTK [G7D], for which the protein stability index turned out to be 4.33.
With GSLPWQFLKADTLKERYQKIGDTK [G7F], the protein stability index worked out at 2.42.
On to GSLPWFGLKADTLKERYQKIGDTK [Q6F], for which the protein stability index came out at 3.25.
In the case of GSLPWTGLKADTLKERYQKIGDTK [Q6T] it was 4.24; in that of GSLPWSGLKADTLKERYQKIGDTK [Q6S], 3.98.
For GSLPWYGLKADTLKERYQKIGDTK [Q6Y] the value was 2.89.
In the case of GSLPWAGLKADTLKERYQKIGDTK [Q6A] it was 3.7.
